Source: patent publication US20220023385A1

Legend:
[1] = biological target: FGFRs expressed on NIH3T3 cells; assay: cell-based or functional assay
[2] = biological target: FGFRs expressed on NIH3T3 cells; assay: equilibrium titration of His-tagged FGF1 on FGFR-expressing NIH3T3 cells at 4 °C, flow cytometry with anti-His antibody

| inhibition of ERK phosphorylation induced by 1 nM wild type FGF1 in NIH3T3 cells (Western blot against phosphoERK) [1] | Kd [2] | Substance |
| --- | --- | --- |
| 1 nM |  | FGF1 L131R mutant, recombinant soluble, His-tagged (from UniProt P14210 16-155) (ligand) |
|  | 10 nM | recombinant soluble wild-type FGF1 with N-terminal 6x His tag (from UniProt P14210 16-155) (ligand) |
